The source of these data is US12545707 (UNIVERSITY OF DELAWARE, dated 2026).

*: point of attachment. TAMRA = 5(6)-carboxytetramethylrhodamine amide on Lys NZ; Butanoyl(4-maleimido) = O=C1C=CC(=O)N1CCCC(=O)*; NBD = O=[N+]([O-])c1ccc(*)c2nonc12

Data set [1] concerns the molecule itself. The data set can be described thus: self-association of the peptide into a homotetrameric coiled coil bundle; TEM, cryoTEM and SANS of the linked bundle chains. The method, then:
Transmission Electron Microscopy (TEM): Carbon-coated 200 mesh copper grids (CF200-Cu, Electron Microscopy Sciences, Inc.) were freshly treated by glow discharge using a plasma cleaner (PDC-32G, Harrica Plasma, Inc.) at low level for 20 seconds. Then, 4 µL sample solution was dropped on the grid. After 1 min, the remaining liquid was blotted from the edge of the grid using filter paper. The grid was allowed to air-dry for 10 min before TEM observation on FEI TALOS™ F200C microscope. For negative staining, 6 µL aqueous solution of phosphotungstic acid (2 w/v %, pH 6) was applied to the dried grid and incubated for 15-30 seconds. Then the grid was blotted with filter paper. The stained grid was allowed to sit for 10 min before TEM observation.

Data set [2] concerns the molecule itself. The data set can be described thus: self-association of the dye-labelled peptide into a tetrameric bundle; STORM imaging of the rods. The method, then: With these rigid-rod molecules, the local amino acid sequence along the rods is determined via computational design. With this specified sequence, robust bundle physical assembly, and subsequent covalent polymer formation, one can display desired functionality locally within the polymer chain. High-resolution fluorescence microscopy provides the tool for observation of rigid-rod polymers synthesized with fluorophores attached to specific lysine side chains. Rods with targeted lengths of ~50 nm were first assembled using the same parent peptides as described in FIG. 33 with the short rod termini consisting of bundles displaying thiol functionality (FIG. 33A, more description in Methods). The maleimide-terminated peptides used in the short rod syntheses were functionalized with a desired fluorescent dye (rhodamine; nitrobenzofurazan (NBD); see FIG. 35A). […] After short rod synthesis with desired dye incorporation, separate populations of short red rods and short green rods were mixed together along with individual bundles with maleimide termini and no dye (FIG. 33A and FIG. 35A) in order to link the short, dyed rods together into longer rigid-rod chains. […] The sub-optical wavelength resolution of the STORM technique (stochastic optical reconstruction microscopy) allows clear observation of the ~50 nm long, individual rod segments within final, longer rods. […]

B1: Peptide 1 (maleimide-functionalized bundle-forming peptide, SEQ ID NO: 3) (peptide)
peptide: {Butanoyl(4-maleimido)}-DEKIKNMADQIKHMAWMIDRMAEKIDREA-NH2
modifications: not fully specified (residue 1)
notes: Four copies associate non-covalently into an antiparallel homotetrameric coiled coil bundle; also called P622-A6-1; maleimide-containing peptide
With B1, in data set [1], the binding result is “binds”.

B2: Peptide 4 (SEQ ID NO: 3, maleimide N-terminus, tetramethylrhodamine dye on a lysine side chain) (peptide)
peptide: {Butanoyl(4-maleimido)}-DEKIKNMADQIKHMAWMIDRMAEK(TAMRA)IDREA-NH2
modifications: not fully specified (residue 1)
notes: also called red dye peptide
B2: the binding result in data set [2] is “binds”.

B3: Peptide 2 (bundle-forming peptide with N-terminal cysteine, SEQ ID NO: 1) (peptide)
peptide: H-CDEEIRRMAEEIRQMAERIQQMAEQIQQEA-NH2
modifications: not fully specified
notes: Four copies associate non-covalently into an antiparallel homotetrameric coiled coil bundle; also called 4459a-C; thiol-containing peptide
As to B3, the binding result in data set [1] is “binds”.

B4: Peptide 3 (SEQ ID NO: 3, maleimide N-terminus, nitrobenzofurazan dye on a lysine side chain) (peptide)
peptide: {Butanoyl(4-maleimido)}-DEKIKNMADQIKHMAWMIDRMAEK(NBD)IDREA-NH2
modifications: not fully specified (residue 1)
notes: also called green dye peptide
Turning to B4, the binding result in data set [2] was “binds”.
